Results reported in US20140141450A1.

Columns and labels:
NH2-…-TAG (SEQ ID NO:5) [1] = assay: ECL capture assay; uncleaved NH2-…-TAG at 2.5 µg/mL, FXa 0.00 ng/mL
[2] = molecular target: Peptide sequence VII: NH2-…-TAG Plus; assay: competitive ECL immunoassay; anti-FLAG M1 beads with peptide sequence VII-TAG Plus, uncleaved peptide sequence VI present, Xa 0.00 ng/mL
NH2-…-TAG (SEQ ID NO:5) [3] = assay: ECL capture assay; uncleaved NH2-…-TAG at 1.25 µg/mL, FXa 0.00 ng/mL
NH2-…-TAG (SEQ ID NO:5) [4] = assay: ECL capture assay; uncleaved NH2-…-TAG at 5.0 µg/mL, FXa 0.00 ng/mL
[5] = tested on: T1, Peptide sequence V: Bz-IEGRDYKDDDDKGSHHHHHH(mPeg2)(KLCBiot)-amide
T1 sequence: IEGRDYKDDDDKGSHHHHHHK

[6] = tested on: T2, Peptide probe sequence II: Biotin-(mPeg2)IEGRGS (KBv TAG Plus) amide
T2 sequence: IEGRGSK

[7] = tested on: T3, NH2-IEGRDYKDDDDKGS-TAG (SEQ ID NO:5)
T3 sequence: IEGRDYKDDDDKGS

[8] = tested on: T4, Peptide sequence VI: NH2-IEGRDYKDDDDKGS-amide
T4 sequence: IEGRDYKDDDDKGS

[9] = tested on: T5, Peptide probe sequence I: Biotin-IEGRGS (KBv TAG Plus) amide
T5 sequence: IEGRGSK

## Biotin-conjugated ANTI-FLAG® M1 antibody
NH2-…-TAG (SEQ ID NO:5) [1]
  Mean Signal (ECL, background without FXa): 856 ECL signal
[2]
  Mean Signal (ECL, without FXa): 91800 ECL signal
NH2-…-TAG (SEQ ID NO:5) [3]
  Mean Signal (ECL, background without FXa): 593 ECL signal
NH2-…-TAG (SEQ ID NO:5) [4]
  Mean Signal (ECL, background without FXa): 1770 ECL signal

## factor Xa (FXa)
[5]
  Mean Signal (ECL, TAG Plus anti-FLAG M1 detector), FXa 0.686 ng/mL, 10 minute incubation: 856 ECL signal
  Mean Signal (ECL, TAG Plus anti-FLAG M1 detector), FXa 0.686 ng/mL, 20 minute incubation: 1050 ECL signal
  Mean Signal (ECL, TAG Plus anti-FLAG M1 detector), FXa 2.06 ng/mL, 10 minute incubation: 1430 ECL signal
  Mean Signal (ECL, TAG Plus anti-FLAG M1 detector), FXa 2.06 ng/mL, 20 minute incubation: 2110 ECL signal
  Mean Signal (ECL, TAG Plus anti-FLAG M1 detector), FXa 6.17 ng/mL, 10 minute incubation: 3100 ECL signal
  Mean Signal (ECL, TAG Plus anti-FLAG M1 detector), FXa 6.17 ng/mL, 20 minute incubation: 6040 ECL signal
  Mean Signal (ECL, TAG Plus anti-FLAG M1 detector), FXa 18.5 ng/mL, 10 minute incubation: 8790 ECL signal
  Mean Signal (ECL, TAG Plus anti-FLAG M1 detector), FXa 18.5 ng/mL, 20 minute incubation: 20700 ECL signal
  Mean Signal (ECL, TAG Plus anti-FLAG M1 detector), FXa 55.6 ng/mL, 10 minute incubation: 33700 ECL signal
  Mean Signal (ECL, TAG Plus anti-FLAG M1 detector), FXa 55.6 ng/mL, 20 minute incubation: 74000 ECL signal
  Mean Signal (ECL, TAG Plus anti-FLAG M1 detector), FXa 167 ng/mL, 10 minute incubation: 113000 ECL signal
  Mean Signal (ECL, TAG Plus anti-FLAG M1 detector), FXa 167 ng/mL, 20 minute incubation: 225000 ECL signal
  Mean Signal (ECL, TAG Plus anti-FLAG M1 detector), FXa 500 ng/mL, 10 minute incubation: 298000 ECL signal
  Mean Signal (ECL, TAG Plus anti-FLAG M1 detector), FXa 500 ng/mL, 20 minute incubation: 498000 ECL signal
  Signal/Background, FXa 0.686 ng/mL, 10 minute incubation: 2.5
  Signal/Background, FXa 0.686 ng/mL, 20 minute incubation: 3.3
  Signal/Background, FXa 2.06 ng/mL, 10 minute incubation: 4.1
  Signal/Background, FXa 2.06 ng/mL, 20 minute incubation: 6.6
  Signal/Background, FXa 6.17 ng/mL, 10 minute incubation: 9
  Signal/Background, FXa 6.17 ng/mL, 20 minute incubation: 19
  Signal/Background, FXa 18.5 ng/mL, 10 minute incubation: 25
  Signal/Background, FXa 18.5 ng/mL, 20 minute incubation: 65
  Signal/Background, FXa 55.6 ng/mL, 10 minute incubation: 98
  Signal/Background, FXa 55.6 ng/mL, 20 minute incubation: 232
  Signal/Background, FXa 167 ng/mL, 10 minute incubation: 328
  Signal/Background, FXa 167 ng/mL, 20 minute incubation: 706
  Signal/Background, FXa 500 ng/mL, 10 minute incubation: 864
  Signal/Background, FXa 500 ng/mL, 20 minute incubation: 1560
[6]
  % Signal Decrease, FXa 78.1 ng/mL: 0%
  % Signal Decrease, FXa 156 ng/mL: -4%
  % Signal Decrease, FXa 313 ng/mL: -11%
  % Signal Decrease, FXa 625 ng/mL: -10%
  % Signal Decrease, FXa 1250 ng/mL: -24%
  % Signal Decrease, FXa 2500 ng/mL: -39%
  % Signal Decrease, FXa 5000 ng/mL: -66%
  Mean Signal (ECL), FXa 78.1 ng/mL: 340000 ECL signal
  Mean Signal (ECL), FXa 156 ng/mL: 326000 ECL signal
  Mean Signal (ECL), FXa 313 ng/mL: 303000 ECL signal
  Mean Signal (ECL), FXa 625 ng/mL: 306000 ECL signal
  Mean Signal (ECL), FXa 1250 ng/mL: 257000 ECL signal
  Mean Signal (ECL), FXa 2500 ng/mL: 209000 ECL signal
  Mean Signal (ECL), FXa 5000 ng/mL: 117000 ECL signal
[7]
  Mean Signal (ECL, capture on anti-FLAG M1 beads), FXa 1.37 ng/mL, peptide 1.25 µg/mL: 1140 ECL signal
  Mean Signal (ECL, capture on anti-FLAG M1 beads), FXa 1.37 ng/mL, peptide 2.5 µg/mL: 1390 ECL signal
  Mean Signal (ECL, capture on anti-FLAG M1 beads), FXa 1.37 ng/mL, peptide 5.0 µg/mL: 3720 ECL signal
  Mean Signal (ECL, capture on anti-FLAG M1 beads), FXa 4.12 ng/mL, peptide 1.25 µg/mL: 2170 ECL signal
  Mean Signal (ECL, capture on anti-FLAG M1 beads), FXa 4.12 ng/mL, peptide 2.5 µg/mL: 3830 ECL signal
  Mean Signal (ECL, capture on anti-FLAG M1 beads), FXa 4.12 ng/mL, peptide 5.0 µg/mL: 6360 ECL signal
  Mean Signal (ECL, capture on anti-FLAG M1 beads), FXa 12.3 ng/mL, peptide 1.25 µg/mL: 4440 ECL signal
  Mean Signal (ECL, capture on anti-FLAG M1 beads), FXa 12.3 ng/mL, peptide 2.5 µg/mL: 7700 ECL signal
  Mean Signal (ECL, capture on anti-FLAG M1 beads), FXa 12.3 ng/mL, peptide 5.0 µg/mL: 14900 ECL signal
  Mean Signal (ECL, capture on anti-FLAG M1 beads), FXa 37.0 ng/mL, peptide 1.25 µg/mL: 10700 ECL signal
  Mean Signal (ECL, capture on anti-FLAG M1 beads), FXa 37.0 ng/mL, peptide 2.5 µg/mL: 20100 ECL signal
  Mean Signal (ECL, capture on anti-FLAG M1 beads), FXa 37.0 ng/mL, peptide 5.0 µg/mL: 32300 ECL signal
  Mean Signal (ECL, capture on anti-FLAG M1 beads), FXa 111 ng/mL, peptide 1.25 µg/mL: 20500 ECL signal
  Mean Signal (ECL, capture on anti-FLAG M1 beads), FXa 111 ng/mL, peptide 2.5 µg/mL: 41800 ECL signal
  Mean Signal (ECL, capture on anti-FLAG M1 beads), FXa 111 ng/mL, peptide 5.0 µg/mL: 62100 ECL signal
  Mean Signal (ECL, capture on anti-FLAG M1 beads), FXa 333 ng/mL, peptide 1.25 µg/mL: 52800 ECL signal
  Mean Signal (ECL, capture on anti-FLAG M1 beads), FXa 333 ng/mL, peptide 2.5 µg/mL: 62700 ECL signal
  Mean Signal (ECL, capture on anti-FLAG M1 beads), FXa 333 ng/mL, peptide 5.0 µg/mL: 78700 ECL signal
  Mean Signal (ECL, capture on anti-FLAG M1 beads), FXa 1000 ng/mL, peptide 1.25 µg/mL: 69000 ECL signal
  Mean Signal (ECL, capture on anti-FLAG M1 beads), FXa 1000 ng/mL, peptide 2.5 µg/mL: 78200 ECL signal
  Mean Signal (ECL, capture on anti-FLAG M1 beads), FXa 1000 ng/mL, peptide 5.0 µg/mL: 86900 ECL signal
  Signal/Background, FXa 1.37 ng/mL, peptide 1.25 µg/mL: 1.9
  Signal/Background, FXa 1.37 ng/mL, peptide 2.5 µg/mL: 1.6
  Signal/Background, FXa 1.37 ng/mL, peptide 5.0 µg/mL: 2.1
  Signal/Background, FXa 4.12 ng/mL, peptide 1.25 µg/mL: 3.7
  Signal/Background, FXa 4.12 ng/mL, peptide 2.5 µg/mL: 4.5
  Signal/Background, FXa 4.12 ng/mL, peptide 5.0 µg/mL: 3.6
  Signal/Background, FXa 12.3 ng/mL, peptide 1.25 µg/mL: 7.5
  Signal/Background, FXa 12.3 ng/mL, peptide 2.5 µg/mL: 9
  Signal/Background, FXa 12.3 ng/mL, peptide 5.0 µg/mL: 8.4
  Signal/Background, FXa 37.0 ng/mL, peptide 1.25 µg/mL: 18
  Signal/Background, FXa 37.0 ng/mL, peptide 2.5 µg/mL: 24
  Signal/Background, FXa 37.0 ng/mL, peptide 5.0 µg/mL: 18
  Signal/Background, FXa 111 ng/mL, peptide 1.25 µg/mL: 35
  Signal/Background, FXa 111 ng/mL, peptide 2.5 µg/mL: 49
  Signal/Background, FXa 111 ng/mL, peptide 5.0 µg/mL: 35
  Signal/Background, FXa 333 ng/mL, peptide 1.25 µg/mL: 89
  Signal/Background, FXa 333 ng/mL, peptide 2.5 µg/mL: 73
  Signal/Background, FXa 333 ng/mL, peptide 5.0 µg/mL: 45
  Signal/Background, FXa 1000 ng/mL, peptide 1.25 µg/mL: 116
  Signal/Background, FXa 1000 ng/mL, peptide 2.5 µg/mL: 91
  Signal/Background, FXa 1000 ng/mL, peptide 5.0 µg/mL: 49
[8]
  % Signal Decrease, Xa 0.686 ng/mL: -8.5%
  % Signal Decrease, Xa 2.06 ng/mL: -22%
  % Signal Decrease, Xa 6.17 ng/mL: -42%
  % Signal Decrease, Xa 18.5 ng/mL: -60%
  % Signal Decrease, Xa 55.6 ng/mL: -75%
  % Signal Decrease, Xa 167 ng/mL: -84%
  % Signal Decrease, Xa 500 ng/mL: -89%
  Mean Signal (ECL, competitive format), Xa 0.686 ng/mL: 84000 ECL signal
  Mean Signal (ECL, competitive format), Xa 2.06 ng/mL: 71900 ECL signal
  Mean Signal (ECL, competitive format), Xa 6.17 ng/mL: 53000 ECL signal
  Mean Signal (ECL, competitive format), Xa 18.5 ng/mL: 36400 ECL signal
  Mean Signal (ECL, competitive format), Xa 55.6 ng/mL: 22500 ECL signal
  Mean Signal (ECL, competitive format), Xa 167 ng/mL: 14300 ECL signal
  Mean Signal (ECL, competitive format), Xa 500 ng/mL: 9830 ECL signal
[9]
  % Signal Decrease, FXa 78.1 ng/mL: -3%
  % Signal Decrease, FXa 156 ng/mL: -3%
  % Signal Decrease, FXa 313 ng/mL: -9%
  % Signal Decrease, FXa 625 ng/mL: -15%
  % Signal Decrease, FXa 1250 ng/mL: -31%
  % Signal Decrease, FXa 2500 ng/mL: -53%
  % Signal Decrease, FXa 5000 ng/mL: -76%
  Mean Signal (ECL), FXa 78.1 ng/mL: 414000 ECL signal
  Mean Signal (ECL), FXa 156 ng/mL: 413000 ECL signal
  Mean Signal (ECL), FXa 313 ng/mL: 388000 ECL signal
  Mean Signal (ECL), FXa 625 ng/mL: 363000 ECL signal
  Mean Signal (ECL), FXa 1250 ng/mL: 296000 ECL signal
  Mean Signal (ECL), FXa 2500 ng/mL: 202000 ECL signal
  Mean Signal (ECL), FXa 5000 ng/mL: 104000 ECL signal
